From patent US20220348610A1 (published 2022)
Numbered stars: 1 amine (or outer) side, 2 acyl side, 3 side chain; on linkers, the order of the positions; unused ones are H or OH. Bridge positions count the residues as written; N and C are the ends. Square brackets hold non-standard residues; d marks the D form. Tyr(OMe) = O-methyl-Tyr (4-methoxyphenylalanine), COc1ccc(C[C@H](N[*:1])C(=O)[*:2])cc1; Trp(5-F) = N[C@@H](Cc1c[nH]c2ccc(F)cc12)C(=O)O; mXylylene = c1cc(C[*:1])cc(C[*:2])c1; AlexaFluor 647 = AlexaFluor 647 dye; αMeP = C[C@@]1(C(=O)O)CCCN1; Mpa = O=C(O)CCS

B1: Reagent A (peptide)
peptide: [Mpa]K(AlexaFluor 647)G[Trp(5-F)][Trp(5-F)]DHY[αMeP]C-NH2
modifications: linker N-10 via mXylylene; not fully specified
notes: also called AlexaFluor647 (AF) tagged cyclic peptide; AF cyclic peptide
B2: Reagent B (peptide)
peptide: [Mpa]K(AlexaFluor 647)[dA][Trp(5-F)][Trp(5-F)]DH[Tyr(OMe)][αMeP]C-NH2
modifications: linker N-10 via mXylylene; not fully specified
notes: as for B1

What was measured:
[1] = target: T1, biotinylated PCSK9 (UniProt Q8NBP7 31-692, limits assumed, biotinylated (site not stated)); assay: Alexa FRET Standard assay
T1 sequence (Q8NBP7 31-692 limits assumed): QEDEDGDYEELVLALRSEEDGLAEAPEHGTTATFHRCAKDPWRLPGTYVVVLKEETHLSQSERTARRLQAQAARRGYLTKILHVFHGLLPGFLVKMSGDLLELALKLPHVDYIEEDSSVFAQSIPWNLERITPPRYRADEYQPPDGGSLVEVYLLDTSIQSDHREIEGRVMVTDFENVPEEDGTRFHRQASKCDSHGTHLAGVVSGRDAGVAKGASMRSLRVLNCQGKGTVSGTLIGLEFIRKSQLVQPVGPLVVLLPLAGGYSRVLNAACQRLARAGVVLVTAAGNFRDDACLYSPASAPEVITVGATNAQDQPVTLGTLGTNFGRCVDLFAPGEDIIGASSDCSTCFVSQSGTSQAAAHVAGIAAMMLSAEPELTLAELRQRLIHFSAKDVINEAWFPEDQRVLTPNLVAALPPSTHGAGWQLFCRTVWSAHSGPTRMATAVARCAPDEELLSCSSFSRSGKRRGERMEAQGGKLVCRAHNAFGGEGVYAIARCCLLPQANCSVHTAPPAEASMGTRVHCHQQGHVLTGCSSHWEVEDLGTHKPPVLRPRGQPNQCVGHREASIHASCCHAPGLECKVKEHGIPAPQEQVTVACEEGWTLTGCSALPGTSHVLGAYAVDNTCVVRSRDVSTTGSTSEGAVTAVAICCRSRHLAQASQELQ
Experimental: A solution containing 1 nM biotinylated PCSK9+2.5 nM Lance Streptavidin Europium (Strep-Eu) was made in 50 mM HEPES pH 7.4, 0.15 M NaCl, 5 mM CaCl₂), 0.01% BSA, and 0.01% Surfactant P20. A separate solution containing 40 nM of the AlexaFluor tagged cyclic peptide was made in the same buffer system. An Echo was used to transfer 0.750 ul of compound to an assay plate followed by the addition of 15 ul of PCSK9+Stept-Eu and 15 ul of AF peptide. The final assay volume was 30.750 ul containing 0.5 nM PCSK9, 1.25 nM Strep-Eu, and 20 nM AF cyclic peptide. The reaction was incubated at room temperature for at least two hours prior to fluorescence measurements using an Envision Multilabel Reader. IC₅₀ values were determined by fitting data to a sigmoidal dose-response curve using nonlinear regression. Kᵢ was then calculated from the IC₅₀ and the KD of AF cyclic peptide. Counts (B-counts) of the europium-labeled PCSK9 were followed to observe if compounds were […]. A fall off of the B-counts likely indicated a false positive of inhibition. Data from this procedure was reported as “A=‘numerical value’ (nanomolar)”

[2] = target: T1, biotinylated PCSK9; assay: Alexa FRET Plus assay
Experimental: A solution containing 1 nM biotinylated PCSK9+2.5 nM Lance Streptavidin Europium (Strep-Eu) was made in 50 mM HEPES pH 7.4, 0.15 M NaCl, 5 mM CaCl₂), 0.01% BSA, and 0.01% Surfactant P20. A separate solution containing 1920 nM of the AlexaFluor tagged cyclic peptide was made in the same buffer system. An Echo was used to transfer 0.075 ul of compound plus 0.675 ul of DMSO to each well of an assay plate followed by the addition of 15 ul of PCSK9+Stept-Eu and 15 ul of AF peptide. The final assay volume was 30.750 ul containing 0.5 nM PCSK9, 1.25 nM Strep-Eu, and 960 nM AF cyclic peptide. The reaction was incubated at room temperature for at least two hours prior to fluorescence measurements using an Envision Multilabel Reader. IC₅₀ values were determined by fitting data to a sigmoidal dose-response curve using nonlinear regression. Kᵢ was then calculated from the IC₅₀ and the KD of AF cyclic peptide. Counts (B-counts) of the europium-labeled PCSK9 were followed to observe if compounds were adversely affecting PCSK9. A fall off of the B-counts likely indicated a false positive of inhibition. Data from this procedure was reported as “P=‘numerical value’ (nanomolar)”

Binder | Kd [1] [nM] | Kd [2] [nM]
B1 | 83 | 
B2 |  | 35
